{
  "source": "patent US20060084596A1",
  "about": "(UNIVERSITY OF SOUTH FLORIDA, published 2006)",
  "key": {"[1]": {"biological_target": "acidic fibroblast growth factor (aFGF) (UniProt P05230 16-155, limits assumed)", "sequence (P05230 16-155 limits assumed)": "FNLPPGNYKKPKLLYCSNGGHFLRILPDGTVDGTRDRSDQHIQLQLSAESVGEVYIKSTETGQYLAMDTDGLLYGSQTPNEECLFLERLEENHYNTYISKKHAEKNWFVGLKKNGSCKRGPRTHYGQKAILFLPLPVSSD", "assay": "cell-based or functional assay"}, "[2]": {"biological_target": "T1, vascular endothelial growth factor (VEGF) (UniProt P15692-4 27-191, limits assumed)", "T1 sequence (P15692 other isoform, or with tags, fused parts or gaps limits assumed)": "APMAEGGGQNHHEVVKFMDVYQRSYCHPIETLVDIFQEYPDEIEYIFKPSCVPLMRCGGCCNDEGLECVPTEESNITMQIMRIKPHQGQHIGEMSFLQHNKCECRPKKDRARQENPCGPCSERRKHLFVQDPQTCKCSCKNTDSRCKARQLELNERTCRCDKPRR", "assay": "cell-based or functional assay"}, "[3]": {"biological_target": "T2, platelet derived growth factor PDGF-BB (UniProt P01127 82-190)", "T2 sequence (P01127 82-190 limits assumed)": "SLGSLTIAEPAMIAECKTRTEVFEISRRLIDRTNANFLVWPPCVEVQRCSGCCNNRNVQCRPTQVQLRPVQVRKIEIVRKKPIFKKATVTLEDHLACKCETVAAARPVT", "assay": "cell-based or functional assay"}, "[4]": {"biological_target": "insulin-like growth factor-1 (IGF-1) (UniProt P05019 49-118)", "sequence (P05019 49-118 limits assumed)": "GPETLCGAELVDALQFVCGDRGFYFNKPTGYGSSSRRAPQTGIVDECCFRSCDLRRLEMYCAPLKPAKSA", "assay": "cell-based or functional assay"}, "[5]": {"biological_target": "T2, platelet derived growth factor PDGF-BB", "assay": "cell-based or functional assay", "remark": "listed apart in the source"}, "[6]": {"biological_target": "T1, vascular endothelial growth factor …", "assay": "cell-based or functional assay", "remark": "listed apart in the source"}, "[7]": {"biological_target": "T2, platelet derived growth factor PDGF-BB", "assay": "cell-based or functional assay", "remark": "listed apart in the source"}, "[8]": {"biological_target": "insulin-like growth factor-1 (IGF-1) (UniProt P05019)", "sequence (P05019 49-118 limits assumed)": "as above", "assay": "cell-based or functional assay"}, "[9]": {"biological_target": "T1, vascular endothelial growth factor …", "assay": "cell-based or functional assay", "remark": "listed apart in the source"}, "[10]": {"biological_target": "T2, platelet derived growth factor PDGF-BB", "assay": "inhibition of [125I]-PDGF-BB binding to NIH 3T3 cells (PDGFR), 4 °C"}, "[11]": {"biological_target": "T1, vascular endothelial growth factor …", "assay": "inhibition of [125I]-VEGF binding to NIH 3T3 cells overexpressing Flk-1, GFB-111 10 µM"}},
  "note": "“And” between values parts separate entries of the source, which are not always exact repeats. Identical values can stand only once. Like-named read-outs stand apart in the source and are kept apart here. Positions of bridges follow the written chain, without caps; N, C: chain ends.",
  "data": [
    {"binder": "GDSD (designed binder, linker N-C via 3‑aminomethyl‑5‑aminobenzamide; also: four loops on But-Calix calix[4]arene scaffold)", "note": "[GFB-113]", "values": [
      {"measurement": "(IC50) Inhibition, p42", "setting": "[1]", "result": "53.6 µM per head; likely %"},
      {"measurement": "(IC50) Inhibition, p44", "setting": "[1]", "result": "64.3 µM per head; likely %"},
      {"measurement": "IC50, Flk-1-Y-P", "setting": "[2]", "result": "< 10", "unit": "µM"},
      {"measurement": "IC50, p42", "setting": "[2]", "result": 10, "unit": "µM"},
      {"measurement": "IC50, p44", "setting": "[2]", "result": 10, "unit": "µM"},
      {"measurement": "IC50, PDGFR-Y-P", "setting": "[3]", "result": 2.8, "unit": "µM"},
      {"measurement": "IC50, p42/Erk2", "setting": "[3]", "result": 30, "unit": "µM"},
      {"measurement": "% Inhibition at 100 µM, IGF1R-Y-P", "setting": "[4]", "result": -18.9, "unit": "%"},
      {"measurement": "% Inhibition at 100 µM, p42", "setting": "[4]", "result": -31.4, "unit": "%"},
      {"measurement": "% Inhibition at 100 µM, p44", "setting": "[4]", "result": 18.7, "unit": "%"}
    ]},
    {"binder": "GKGF (designed binder, linker N-C via 3‑aminomethyl‑5‑aminobenzamide; also: four loops on But-Calix scaffold)", "note": "[GFB-115]", "values": [
      {"measurement": "IC50, PDGF-BB-stimulated PDGF receptor tyrosine autophosphorylation", "setting": "[5]", "result": 50, "unit": "µM"},
      {"measurement": "(IC50) Inhibition, p42", "setting": "[1]", "result": "-21 µM per head; likely %"},
      {"measurement": "(IC50) Inhibition, p44", "setting": "[1]", "result": "-23.9 µM per head; likely %"},
      {"measurement": "IC50, p42", "setting": "[2]", "result": "5 µM and 10 µM"},
      {"measurement": "IC50, p44", "setting": "[2]", "result": "5 µM and 10 µM"},
      {"measurement": "IC50, PDGFR-Y-P", "setting": "[3]", "result": "> 50", "unit": "µM"},
      {"measurement": "IC50, p42/Erk2", "setting": "[3]", "result": "> 50", "unit": "µM"},
      {"measurement": "% Inhibition at 100 µM, IGF1R-Y-P", "setting": "[4]", "result": -38.3, "unit": "%"},
      {"measurement": "% Inhibition at 100 µM, p42", "setting": "[4]", "result": -12.4, "unit": "%"},
      {"measurement": "% Inhibition at 100 µM, p44", "setting": "[4]", "result": 51.9, "unit": "%"}
    ]},
    {"binder": "GKGK (designed binder, linker N-C via 3‑aminomethyl‑5‑aminobenzamide; also: four loops on But-Calix scaffold)", "note": "[GFB-116]", "values": [
      {"measurement": "IC50, VEGF-stimulated flk-1 tyrosine phosphorylation", "setting": "[6]", "result": 3000, "unit": "µM"},
      {"measurement": "(IC50) Inhibition, p42", "setting": "[1]", "result": "99.2 µM per head; likely % and 99.6 µM per head; likely % and 102 µM per head; likely % and 99.7 µM per head; likely %"},
      {"measurement": "(IC50) Inhibition, p42 (mean)", "setting": "[1]", "result": "100 µM per head; likely %"},
      {"measurement": "(IC50) Inhibition, p44", "setting": "[1]", "result": "97.5 µM per head; likely % and 97.2 µM per head; likely % and 116 µM per head; likely % and 99.9 µM per head; likely %"},
      {"measurement": "(IC50) Inhibition, p44 (mean)", "setting": "[1]", "result": "103 µM per head; likely %"},
      {"measurement": "IC50, Flk-1-Y-P", "setting": "[2]", "result": 0.3, "unit": "µM"},
      {"measurement": "IC50, p42", "setting": "[2]", "result": 5, "unit": "µM"},
      {"measurement": "IC50, p44", "setting": "[2]", "result": 5, "unit": "µM"},
      {"measurement": "IC50, PDGFR-Y-P", "setting": "[7]", "result": 40, "unit": "µM"},
      {"measurement": "IC50, p42/Erk2", "setting": "[7]", "result": 28, "unit": "µM"}
    ]},
    {"binder": "GDGY (designed binder, linker N-C via 3‑aminomethyl‑5‑aminobenzamide; also: four loops on But-Calix calix[4]arene scaffold)", "note": "[GFB-111]", "values": [
      {"measurement": "(IC50) Inhibition, p44", "setting": "[1]", "result": "68 µM per head; likely % and 51.8 µM per head; likely %"},
      {"measurement": "% Inhibition at 100 µM, IGF1R-Y-P", "setting": "[8]", "result": -12.4, "unit": "%"},
      {"measurement": "% Inhibition at 100 µM, p42", "setting": "[8]", "result": -18.4, "unit": "%"},
      {"measurement": "% Inhibition at 100 µM, p44", "setting": "[8]", "result": 10.7, "unit": "%"},
      {"measurement": "IC50, PDGF-BB stimulated DNA synthesis ([3H]-thymidine incorporation)", "setting": "[7]", "result": 6.5, "unit": "µM"},
      {"measurement": "IC50, PDGF-dependent activation of Erk1", "setting": "[7]", "result": 0.8, "unit": "µM"},
      {"measurement": "IC50, PDGF-dependent activation of Erk2", "setting": "[7]", "result": 1.2, "unit": "µM"},
      {"measurement": "IC50, PDGFR-Y-P", "setting": "[7]", "result": 0.25, "unit": "µM"},
      {"measurement": "IC50, p42/Erk2", "setting": "[7]", "result": 2.6, "unit": "µM"},
      {"measurement": "PDGF-BB stimulation of receptor tyrosine phosphorylation, complete block", "setting": "[7]", "result": 3, "unit": "µM"},
      {"measurement": "IC50, Flk-1-Y-P", "setting": "[9]", "result": 5, "unit": "µM"},
      {"measurement": "IC50, VEGF-stimulated Flk-1 tyrosine phosphorylation and MAPK activation", "setting": "[9]", "result": 10, "unit": "µM"},
      {"measurement": "IC50, p42", "setting": "[9]", "result": 10, "unit": "µM"},
      {"measurement": "IC50, p44", "setting": "[9]", "result": 10, "unit": "µM"},
      {"measurement": "IC50", "setting": "[10]", "result": 0.25, "unit": "µM"},
      {"measurement": "inhibition of [125I]-VEGF binding at 10 µM GFB-111", "setting": "[11]", "result": 50, "unit": "%"}
    ]}
  ]
}
